Measurements from US20160263148A1 (University of Washington, published 2016).
Each block holds one binder with its values, some of them ahead of it. Positions of bridges follow the written chain, without caps; N, C: chain ends. Non-standard residues stand in square brackets, D forms with d. p(HEMA-co-NHSMA) = copolymer of 2-hydroxyethyl methacrylate and N-hydroxysuccinimidyl ester methacrylate; Hyp = O=C(O)[C@@H]1C[C@@H](O)CN1

Assays:
[1] = target: T1, Fibrin (pure fibrin clots formed from fibrinogen and thrombin), P02671
T1 chain 1: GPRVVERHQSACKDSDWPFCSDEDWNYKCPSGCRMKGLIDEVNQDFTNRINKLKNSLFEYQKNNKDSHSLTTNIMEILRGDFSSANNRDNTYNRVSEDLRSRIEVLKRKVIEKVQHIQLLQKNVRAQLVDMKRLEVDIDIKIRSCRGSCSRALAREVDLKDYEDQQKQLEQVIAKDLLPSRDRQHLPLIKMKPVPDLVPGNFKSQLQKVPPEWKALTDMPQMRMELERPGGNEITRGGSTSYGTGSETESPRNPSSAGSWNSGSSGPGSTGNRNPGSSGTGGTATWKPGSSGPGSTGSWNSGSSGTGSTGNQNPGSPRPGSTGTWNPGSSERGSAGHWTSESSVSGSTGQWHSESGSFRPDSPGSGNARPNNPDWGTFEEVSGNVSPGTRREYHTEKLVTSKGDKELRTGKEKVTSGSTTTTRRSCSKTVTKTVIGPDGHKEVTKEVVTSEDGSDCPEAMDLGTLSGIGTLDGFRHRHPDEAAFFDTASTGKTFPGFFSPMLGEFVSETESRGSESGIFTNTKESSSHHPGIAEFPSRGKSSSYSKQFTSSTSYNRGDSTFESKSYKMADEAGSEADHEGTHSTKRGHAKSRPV
T1 chain 2: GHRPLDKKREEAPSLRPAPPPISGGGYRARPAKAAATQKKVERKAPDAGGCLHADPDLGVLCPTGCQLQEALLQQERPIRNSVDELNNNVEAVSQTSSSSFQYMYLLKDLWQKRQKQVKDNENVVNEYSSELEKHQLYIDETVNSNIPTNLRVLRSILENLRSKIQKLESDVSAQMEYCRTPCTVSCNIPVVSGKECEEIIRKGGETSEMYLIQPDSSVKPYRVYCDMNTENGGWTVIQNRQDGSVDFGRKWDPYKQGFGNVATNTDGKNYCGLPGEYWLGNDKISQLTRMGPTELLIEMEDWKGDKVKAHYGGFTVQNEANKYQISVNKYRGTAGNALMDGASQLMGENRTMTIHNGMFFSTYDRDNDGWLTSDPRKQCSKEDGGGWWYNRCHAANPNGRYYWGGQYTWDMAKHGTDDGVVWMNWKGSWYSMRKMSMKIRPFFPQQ
T1 chain 3: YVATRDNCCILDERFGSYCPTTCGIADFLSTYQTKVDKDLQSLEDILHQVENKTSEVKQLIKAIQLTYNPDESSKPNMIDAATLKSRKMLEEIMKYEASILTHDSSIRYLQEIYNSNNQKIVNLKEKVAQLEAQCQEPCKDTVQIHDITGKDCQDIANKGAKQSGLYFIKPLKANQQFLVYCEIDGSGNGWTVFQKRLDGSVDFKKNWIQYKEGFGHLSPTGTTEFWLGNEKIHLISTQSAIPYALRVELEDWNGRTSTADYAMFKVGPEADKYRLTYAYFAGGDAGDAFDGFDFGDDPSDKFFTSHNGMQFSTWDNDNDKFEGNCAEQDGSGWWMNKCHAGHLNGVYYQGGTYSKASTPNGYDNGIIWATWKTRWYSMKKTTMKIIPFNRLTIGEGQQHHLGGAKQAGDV

[2] = target: T2, Fibrin (pure fibrin clots formed from fibrinogen and thrombin) (UniProt P02671 36-629; P02675 45-491; P02679 27-437, limits assumed); experiment: cell-based or functional assay
T2 sequence (looked up) 1: T1 chain 1
T2 sequence (looked up) 2: T1 chain 2
T2 sequence (looked up) 3: T1 chain 3

B1: Human Factor XIIIa (HFXIIIa) (protein)
chain: GVNLQEFLNVTSVHLFKERWDTNKVDHHTDKYENNKLIVRRGQSFYVQIDFSRPYDPRRDLFRVEYVIGRYPQENKGTYIPVPIVSELQSGKWGAKIVMREDRSVRLSIQSSPKCIVGKFRMYVAVWTPYGVLRTSRNPETDTYILFNPWCEDDAVYLDNEKEREEYVLNDIGVIFYGEVNDIKTRSWSYGQFEDGILDTCLYVMDRAQMDLSGRGNPIKVSRVGSAMVNAKDDEGVLVGSWDNIYAYGVPPSAWTGSVDILLEYRSSENPVRYGQCWVFAGVFNTFLRCLGIPARIVTNYFSAHDNDANLQMDIFLEEDGNVNSKLTKDSVWNYHCWNEAWMTRPDLPVGFGGWQAVDSTPQENSDGMYRCGPASVQAIKHGHVCFQFDAPFVFAEVNSDLIYITAKKDGTHVVENVDATHIGKLIVTKQIGGDGMMDITDTYKFQEGQEEERLALETALMYGAKKPLNTEGVMKSRSNVDMDFEVENAVLGKDFKLSITFRNNSHNRYTITAYLSANITFYTGVPKAEFKKETFDVTLEPLSFKKEAVLIQAGEYMGQLLEQASLHFFVTARINETRDVLAKQKSTVLTIPEIIIKVRGTQVVGSDMTVTVEFTNPLKETLRNVWVHLDGPGVTRPMKKMFREIRPNSTVQWEEVCRPWVSGHRKLIASMSSDSLRHVYGELDVQIQRRPSM
pore radius of fibrin clots (permeation study) [1]: 286±18 nm

clot strength (MA, TEG) relative to controls [2]: 2.5 times
Binder: Ac-Y[dE]C[Hyp]YGLCYIQGK(p(HEMA-co-NHSMA))-NH2 (other, disulfide 3-8; also: about 16 peptides grafted per polymer backbone)
